T1: MdAIL5 (Malus domestica (apple)?, UniProt A0A678R5P4 1-555)
T1 sequence: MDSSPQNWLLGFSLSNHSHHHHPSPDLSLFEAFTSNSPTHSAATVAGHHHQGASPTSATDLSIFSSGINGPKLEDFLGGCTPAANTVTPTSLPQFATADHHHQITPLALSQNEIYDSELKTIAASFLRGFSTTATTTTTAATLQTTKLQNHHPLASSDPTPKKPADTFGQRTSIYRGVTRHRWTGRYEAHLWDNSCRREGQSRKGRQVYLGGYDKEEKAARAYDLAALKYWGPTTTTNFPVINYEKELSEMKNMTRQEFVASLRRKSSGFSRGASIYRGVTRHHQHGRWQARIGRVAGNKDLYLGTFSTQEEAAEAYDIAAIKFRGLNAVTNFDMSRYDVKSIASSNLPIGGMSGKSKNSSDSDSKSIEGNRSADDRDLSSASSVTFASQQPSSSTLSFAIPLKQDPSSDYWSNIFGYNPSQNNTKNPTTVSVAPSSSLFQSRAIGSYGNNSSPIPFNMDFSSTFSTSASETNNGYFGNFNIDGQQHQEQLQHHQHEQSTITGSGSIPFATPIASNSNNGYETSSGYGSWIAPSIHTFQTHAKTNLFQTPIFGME


Target: T1, MdAIL5
Assay: EMSA; LightShift Chemiluminescent EMSA Kit per manufacturer; buffer, salt, pH and temperature not stated
Conditions: protein: recombinant; tags: GST (N-terminal, pGEX-4T-1); cold version unlabeled; blunt

Binder	binding result
Probe with CACGCATCCCGAAG (Table S1: MdHB14pro; text and Fig. 6d: MdARF9 promoter) (dsDNA) DNA 1: CGTTACACCAAACCACACGCATCCCGAAGCGCCGTTCACGTCAA DNA 2: TTGACGTGAACGGCGCTTCGGGATGCGTGTGGTTTGGTGTAACG	binds
Probe with CACAATTGCCTATG (Table S1: MdARF9pro; text and Fig. 6e: MdHB14 promoter) (dsDNA) DNA 1: TGGGCTATTACATCCCACAATTGCCTATGAGTGGCCAATTTTTCCT DNA 2: AGGAAAAATTGGCCACTCATAGGCAATTGTGGGATGTAATAGCCCA	binds

Source: PMC10673654, “MdAIL5 overexpression promotes apple adventitious shoot regeneration by regulating hormone signaling and activating the expression of shoot development-related genes”
